From the nanobody polyreactivity screen of Harvey et al. (2022)

assay: yeast display, Sf9 membrane polyspecificity reagent, FACS + sequencing; frameworks hold sequencing errors
Outline: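 Sorting gates, low and high (top ~1%), were placed on anti-HA fluorescence to track expression and on streptavidin fluorescence to track reagent binding. A clone's polyreactivity label is taken from the gate it came out of. The reagent was 10% biotinylated, detergent-solubilized Sf9 membrane, applied for 1 hour at 4 °C to galactose-induced yeast display cells.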

Sequence | polyreactivity (PSR sort gate)
QVQLVESGGGLVQAGGSLRLSCAASGSTFRRYAMGWYRQAPGKERELVAAITWRGGSTYYADSVKGRFTISRDNAKNTVFLQMNSLKPEDTAVYYCATSDYYYDYWGQGTQVTVSS | high polyreactivity
QVQLVESGGGLVQAGGSLRLSCAASGSTFRRYAMGWYRQAPGKERELVADISSGGSTYYADSVKGRFTISRDNAKNTVYLQMNSLKPEDTAVYYCNAKTFYYGSRFRRAEYDYWGQGTQVTLSS | low polyreactivity
QVQLVESGGGLVQAGGSLRLSCAASGSTFRRYTMGWYRQAPGKERELVAAITWSGGSTYYADSVKGRFTISRDNAKNTVYLQMNSLKPEDTAVYYCAADRPYHTREYYYWGQGTQVNVSS | low polyreactivity
QVQLVESGGGLVQAGGSLRLSCAASGSTFRSYAMGWYRQAPGKERELVAAITSSGGRTYYADSVKGRFTISRDNAKHTVYLQMNSLKPEDTAVYYCAARTYSWGDWGQGTQVTVSS | high polyreactivity
QVQLVESGGGLVQAGGSLRLSCAASGSTFRTKAMGWYRHAPGKERELVAAITSGTRTYYADSVKGRFTLSRDNAKNTVYLQMNSLKPEDTAVYYCAAEYYGSSYSNYRTEYDYWGQGTQVTVSS | low polyreactivity
QVQLVESGGGLVQAGGSLRLSCAASGSTFRTNAMGWYRQAPGKERELVAAISGNGGSTYYADSVKGRFTISRDNAKYNVYLQMNSLKAEDTAVYYCAARRGYRYYPPFGYWGQGTQVTVSS | high polyreactivity
QVQLVESGGGLVQAGGSLRLSCAASGSTFRTNTRGWYRQAPGKERELVAAITKSGGSTYYADSVKGRFTISRDNAKNTVYLQMNSLKPEDTAVYYCAARVLYRSGLRGDYWGQGTQVTVSS | high polyreactivity
QVQLVESGGGLVQAGGSLRLSCAASGSTFRTYAMGWYRQAPGKERELVAAIRSRGGSTYYADSVKGRFTISRDNAKNTVYLLMNSLKPEDTAVYYCNAVPRWSYVDEDSWGQGTQVTVSS | high polyreactivity
QVQLVESGGGLVQAGGSLRLSCAASGSTFRTYAMGWYRQAPGKERELVAAISYNGGSTYYADSVTGRFTISRDNAKNTVYLQMNILKPEDTEVYYFAKDQTGYWYNRYGYWGQGTQVTVSS | low polyreactivity
QVQLVESGGGLVQAGGSLRLSCAASGSTFRTYSMGWYRQAPGKEREWVASITSSGASTYYADSVKGRFTISRDNAKNTVYLQMNSLKPEDTAVYYCAKGYPWYYRYKYDSWGQGTQVTVSS | high polyreactivity
QVQLVESGGGLVQAGGSLRLSCAASGSTFRVNAMGWYRQAPGKERELVAAISFSAGGTYYADSVKGRFTISRDNAKNTVYLQMNSLKPADTAVYYCNARYGGWVWSTYDHWGQGTQVTVSS | low polyreactivity
QVQLVESGGGLVQAGGSLRLSCAASGSTFRVNAMGWYRQAPGKERELVAVITSGGSTYADSVKGRFTISRDNAKNTVYLQMNSLKPEDTAVYYCAAESRWSWVHWSAYTYDYWGQGTQVTVSS | low polyreactivity
QVQLVESGGGLVQAGGSLRLSCAASGSTFRVYAMGWYRQAPGKERELVAAISWSGGRTYYADSVKGRFTISGDNAKNTVYLQMNSLKTEDTAVYYCAADTYGRYDYWGQGTQVTVSS | high polyreactivity
QVQLVESGGGLVQAGGSLRLSCAASGSTFRWNAMGWYRQAPGKERELVAAISNGGSTNYADSVKGRFTISRDNAKNSVYFQMNSLKPEDTAVYYCATDGWYGQHYYDYDFDYYYWGQGTQVTVSS | low polyreactivity
QVQLVESGGGLVQAGGSLRLSCAASGSTFRWNAMGWYRQAPGKERELVAAISSGGRTYYADSVKGRFTISRDNAKNTVYLQMNSLKPEDTAVYYCSARTSRYYYYPYAFYWGQGTQVSVSS | high polyreactivity
QVQLVESGGGLVQAGGSLRLSCAASGSTFRWYAMGWSRQAPGKERELVAAIRRIGSRTYADSVKGRFTISRDNAKNTVYLQMNSLKPEDTAVYYCATRYKYTGYDYWGQGTQVTVSS | high polyreactivity
QVQLVESGGGLVQAGGSLRLSCAASGSTFRWYAMGWYRQAPGKERELVASITRGGGSTYYADSVKGRFTISRDNAKNTVYLQMNSLKPEDTAVYYCAKRSLWSYYEGYYYWGQGTQVTVSS | high polyreactivity
